Data on 19 sequences can be found in the DeepSol protein solubility set.

This series is described as follows: soluble on expression in E. coli; label from the status in PepcDB or PDB records.
Turning to “MGSDKIHHHHHHMMSLSNERLIHDPLEWDALVARYGLDCYYEYAYFKLAQEPEAVPEMYVHPSEFGILIYPYLKRRISGTPLQDLTTPYGYGGPVFVGLWSSDQIKDIRRHFLEYCQAERIVSETIRFHPLLENDELGRSWCETTTVLQQTVTVALSEPFEAIESQFSSMTRRNIRKAVREDVTVRVAGQEEYAKFIRLYRLTMDKHQADARYYFTDHYFRQFHDGRLPAELLVAEREGKIIAGCIVLYGQQFAHYHLGASDPAELSARPNHLLFAEMIRRAKALGKTALHLGGGTTRNEDDSLLAYKRSFSNRQTSFTLGTSVLHPLLYRQLSEQHFAHNVLSSQDWFPAYRTPVRQLSPRGEQSS”, the “soluble on expression in E. coli” value is “not soluble”. As for “MVTQILGAMESQVGGGPAGPALPNGPLLGTNGATDDSKTNLIVNYLPQNMTQDEFKSLFGSIGDIESCKLVRDKITGQSLGYGFVNYSDPNDADKAINTLNGLKLQTKTIKVSYARPSSASIRDANLYVSGLPKTMSQKEMEQLFSQYGRIITSRILVDQVTGVSRGVGFIRFDKRIEAEEAIKGLNGQKPLGAAEPITVKFANNPSQKTGQALLTHLYQSSARRYAGPLHHQTQRFRLDNLLNMAYGVKSPLSLIARFSPIAIDGMSGLAGVGLSGGAAGAGWCIFVYNLSPEADESVLWQLFGPFGAVTNVKVIRDFTTNKCKGFGFVTMTNYDEAAMAIASLNGYRLGERVLQVSFKTSKQHKA”, the “soluble on expression in E. coli” value is given as “soluble”. In the case of “GAMGMQQGQMAYDRAITVFSPDGRLFQVEYAREAVKKGSTALGMKFANGVLLISDKKVRSRLIEQNSIEKIQLIDDYVAAVTSGLVADARVLVDFARISAQQEKVTYGSLVNIENLVKRVADQMQQYTQYGGVRPYGVSLIFAGIDQIGPRLFDCDPAGTINEYKATAIGSGKDAVVSFLEREYKENLPEKEAVTLGIKALKSSLEEGEELKAPEIASITVGNKYRIYDQEEVKKFL”, the “soluble on expression in E. coli” value is “soluble”. Under “MRIIETIEEMKKFSEEMREKKKTIGFVPTMGYLHEGHLSLVRRARAENDVVVVSIFVNPTQFGPNEDYERYPRDFERDRKLLEKENVDCIFHPSVEEMYPPDFSTYVEETKLSKHLCGRSRPGHFRGVCTVVTKLFNIVKPHRAYFGQKDAQQFRVLRRMVRDLNMDVEMIECPIVREPDGLAMSSRNVYLSPEERQQALSLYQSLKIAENLYLNGERDAEKIKEEMIKHLSRFDKVKIDYVEIVDEETLEPVEKIDRKVIVAVAAWVGNARLIDNTILG” stands “soluble”; under “MGSDKIHHHHHHMKLLHIERHTTCLNYVSDYNICFIHQRLFSGGDFKIDNHHHSCILFLLKGEILTSCSEFHDQHIVEGHMVLFPQNDPNQSKSMTETEFILLFFDNQVNLHNKMSIELSAIHLESEKSCFYSLSICPPLRHVLDSICFYLKQKVQCSHMHELKQKEIFMVFGTFYNRTDMAHFLMPITGRDPNFKSFVLENYLQIRNIKQFAQLYHCSERSFNRKFKSCFHDTPYNWILNQKTRHIKGQLANRNIPISEIARTFHFASPSHFTTYCKKRLGITPSEFREKIAK”, “not soluble”. As to “MRGKLDLGEQPLVLIWEVTQACELACKHCRADAQPRRHPDELSTAEGKALLDQASEFGDGQLVVLSGGDPLARGDLPELVEYGTEQGLRMTLTPSGTNSITPERLAELDDAGLRRLALSIDGGDSDAHDTFRGESGSFEATMAAAEAARNLDIPLQINTTVCAETVEQLPAIRDLVADLDAVLWSVFFLVPVGRGRVLTPIDPERAERVLKWLHEVSDEASFGLKTTEAPHYRRVAMEQQDEGASGLKRRMGIRAGKGFAFVSHTGEVFPSGFLPKSAGSVREESVVDIYRDSPLFQQLRDDDALTGKCGACRYRTVCGGSRSRAYATTGDPLAADPLCDYRPDGFEGSVPDQHPAD”, the “soluble on expression in E. coli” value is given as “not soluble”. Under “MAEHRSMQRAALLDAARSLLSDGGTEALTFPALAERTGLARSSVYEYFRSRAAVVEELCAVDFPVWAAEVEAAMERETAPDAKVEAYVRTQLDLVGDRRHRAVVAISASELDAGAREKIRAAHGGLIAMIVEALGEMGHGQPRLAAMLLQGVVDAAVRRIELGAAEEPGAITEAAVSMALRGVRG” stands “not soluble”; under “MSLEKVLVIVGPTAVGKTALSIALAKKFNGEIISGDSMQVYRSLDIGTAKVTETEKEGIPHYLIDCREVSETYSAADFQKEGRQKIKEITEKGKLPIIVGGTGLYIQSLLYDFQLGSREIDDSPEIRETYNLFAEEKGNQALWLLLQQKDPLAANSIHFNNRKKVIRALEVFDKTGYSILTPKEKPARLYDYYLLGLETDRALLYERINQRVDQMMTEGLLEEAKQMFQQPHAQAAQGIGYKEFFPYFSGEQSLEMAVETVKQQSRRYAKRQLTWFRNRMAAHWWNLVQQPTDLPKLEKEVAEWLQQKESEEGHHHHHH”, “soluble”. In the case of “MGSDKIHHHHHHMEDLNSLYYFTQVVEHGGFAPAGRALDMPKSKLSRRIADLEDRLGVRLLNRTSRHCSLTEIGQAYYNRCLAMRVEAEGAAEIIERNRSEPRGLVRISCPTTLLNSWVGPMLTRYMLKYPQVELFIESTNRRVDLLHEGFDIALRVRFPPLENTDMVMKVLSNSTQCLVGQPQYLAQLPKGFDPQLLGTLPSVHWGSAQREYQWELFQGEDNSRSIVIPHTPRMVTDDLFALRHFVVAGVGIAHLPRVAVREDLAAGRLVELIPDWHPRCGIVHAIFPSRRGLLPSVRALIDHLAEEFAISDMA” it was “not soluble”.

“MSLTEAPRVRLVGAEIFERPVEFRFPFRFGAARVTNAPQAFVRVRVEDASGRSTIGRSAEMMMPKWFDKNPSLSPEDNVGQLRASLRLAAEGLKSLQAETAFGLHVAAETEHHQAAATHGLPPLVASYGLALLDRAILDAVCRMMGACAAEAVRNNLLGVSGVAAPDLAGFDLTRFLSRLNVSSRLAVRHTIGLADVLTVADLGAMQRPADGLPQTLEDVIAAYGHRYFKIKVSGRPAEDIERLVAIAAILDDRVGDYRATLDGNEQFENIDLVCDLLDRIEEEPRLKRLRASMLFFEQPIARAEALSKPVVAAAQRMPLEIDESDGDMGAFLRARELGYAGISSKSCKGFYRALINRARVEKWNAEAGSSHYFMSAEDLTTQAGLALQQDLVLASLVGAGHVERNGHHYVDGMAGAPEGEQLAYLSHHGDLYEGAAGQTRLAIQAGEITFATALRSVGLGSSVDPDWAAMRPVSEGHHHHHH”: the “soluble on expression in E. coli” value is recorded as “not soluble”. In the case of “MKTQVAIIGAGPSGLLLGQLLHKAGIDNVILERQTPDYVLGRIRAGVLEQGMVDLLREAGVDRRMARDGLVHEGVEIAFAGQRRRIDLKRLSGGKTVTVYGQTEVTRDLMEAREASGATTVYQAAEVRLHDLQGERPYVTFERDGERLRLDCDYIAGCDGFHGISSQSIPAERLKVFERVYPFGWLGLLADTPPVSHELIYANHPRGFALCSQRSATRSRYYVQVPLTEKVEDWSDERFWTELKARLPAEVAEKLVTGPSLEKSIAPLRSFVVEPMQHGRLFLAGDAAHIVPPTGAKGLNLAASDVSTLYRLLLKAYREGRGELLERYSAICLRRIWKAERFSWWMTSVLHRFPDTDAFSQRIQQTELEYYLGSEAGLATIAENYVGLPYEEIE” it was “soluble”; in that of “MGHHHHHHSHELLVVGSRPELGRWEPRGAVRLRPAGTAAGDGALALQEPGLWLGEVELAAEEAAQDGAEPGRVDTFWYKFLKREPGGELSWEGNGPHHDRCCTYNENNLVDGVYCLPIGHWIEATGHTNEMKHTTDFYFNIAGHQAMHYSRILPNIWLGSCPRQVEHVTIKLKHELGITAVMNFQTEWDIVQNSSGCNRYPEPMTPDTMIKLYREEGLAYIWMPTPDMSTEGRVQMLPQAVCLLHALLEKGHIVYVHCNAGVGRSTAAVCGWLQYVMGWNLRKVQYFLMAKRPAVYI”, “not soluble”. Consider “MGSDKIHHHHHHMVKYMKIVGITDLHGKLPPAVREFKDFADVLVVCGDITHFGKGIEVIEKLAELSDYMEVLCVPGNCDTKEVIDELNSFKLNIDRKVKKIENINFVGIGGSNKTPFNTPNEYTEEEIYNKLINVVKNLKNIFLVSHAPPYNTMADIVDLDKDIHVGSKSIRKIIEDFNENIRFCACGHIHESRCIDKIGNTIVVNPSPKSYFVYDTKKNMVVLDDFNGF”, for which the “soluble on expression in E. coli” value is “not soluble”. Under “MGSDKIHHHHHHMNGQLLRQIANYQILYSACCKDLGLLRGKIGISLFFFHYAHFCGDSLYSDYANELIGDVYDDIRIDTPWGIRNGLLGIGWGLEYFMQKGFVECGSNDILTELDNKIMERDLRRVKDYSFDTGIEGLAWYVLIRLLSSERYLQKPFDKMYLDDLRGVCENVPNKVCHPGISLLLDYLVGKQIDDWYLVVLGKITSQRTGGEKKEALLWVEGLKYLLR” stands “not soluble”; under “MVEKEETKKRARSSSSSSSSSSGSSSSGSSSSGSRSSSSSSSGRSRSRSPRRRDTRPPARGGRSRSPIRRGSPPRGARADRDRPMRPSPSPPRRRRPSPSPPRRDRRDRSGSRQRRRASPRRSPAARSASPAKRVVIKNLSRNVLKTHLEEIFSIYGAIKNVDLPPDRFHNHVHRGYGYVEYDNLEDAEKSIKHMDGGQIDGMAVHVEMTIGRQSVPFQRRSSPFRRRSPPPRDRMSPMRRGGRSPPPHRRRSPMGGRGSGANNMPLGGPNRFRRASRSRSPAGRRSRS”, “soluble”. As for “GMMVPHLTTALTGPLLTLEKRLLDNMPRIEHWFRSQWQEYGAPFYASVDLRNAGFKLAPVDTNLFPGGFNNLNPDFLPLCIQAAMVAVEKICPDARRLLLIPENHTRNTFYLRNVHALTHILRQAGLEVRIGSIAPEITAPTFLETHDGHSILLEPVRRKANRLELDNFDSCAILLNNDLSGGIPDILQGLEQSLIPPLHAGWATRRKSNHFTAYDRVVEEFAPLIDIDPWLLNPYFDTCGGLDFHARLGEEQLAEKVDSLLAKIRRKYAEYGVKQEPFVIVKADAGTYGMGIMTVKSADDVRDLNRKQRNKMSVVKEGLKVSEVILQEGVYTFEHLKDAVAEPVIYMMDHFVVGGFYRVHTSRGADENLNAPGMHFEPLTFETPCSTPDCAGAPDAAPNRFYAYGVVARLALLAATIELQETDPDLLDERT”, the “soluble on expression in E. coli” value is on record as “soluble”. Under “MGSDKIHHHHHHMIDLRSDTVTKPTEEMRKAMAQAEVGDDVYGEDPTINELERLAAETFGKEAALFVPSGTMGNQVSIMAHTQRGDEVILEADSHIFWYEVGAMAVLSGVMPHPVPGKNGAMDPDDVRKAIRPRNIHFPRTSLIAIENTHNRSGGRVVPLENIKEICTIAKEHGINVHIDGARIFNASIASGVPVKEYAGYADSVMFCLSKGLCAPVGSVVVGDRDFIERARKARKMLGGGMRQAGVLAAAGIIALTKMVDRLKEDHENARFLALKLKEIGYSVNPEDVKTNMVILRTDNLKVNAHGFIEALRNSGVLANAVSDTEIRLVTHKDVSRNDIEEALNIFEKLFRKFS” stands “soluble”. Turning to “MAHHHHHHMRTAVGSGAGASAAARAIPTAVPLTVADIDALARRDGVVSSDAVVSQQGTVASSRSVAELQAVVQSLQQENAELRERLERDRRQMLRSAMDVRDLHASQKQIRQRDLDRIEWLYCDNQRLRKILEMQGSAQELAGVLSPQPPAAAPATAHRPSLEGLRPLPEVPVELNAIEEEMPALEAEVVHLRGALVLKTQHLDDLWGHAERAEGYVQDLLQKLEHVQGIVREESDSCARRSKHLESTDQPLEDIVSFVSLRDHSSATQLTGPSSTTPFPFATVGRCEHIKRAAAVHGG”, the “soluble on expression in E. coli” value was “not soluble”. Under “MGHHHHHHSHPPCRPCRYKKYVFLDPLAGAVTKTHVMLGAETEEKLFDAPLSISKREQLEQQVGGAGQRWRQVQWPRALPELLSSQGCWALYSTHGRCTQGLVGCPCRSLSPLTCPCLILQVPENYFYVPDLGQVPEIDVPSYLPDLPGIANDLMYIADLGPGIAPSAPGTIPELPTFHTEVAEPLKTYKMGY” stands “not soluble”.
